Test results: patent US12427210B2, “Compounds comprising a fibroblast activation protein ligand and use thereof” (priority 2019, dated 2025)

T1: A2A (h) (human), P29274
T1 chain: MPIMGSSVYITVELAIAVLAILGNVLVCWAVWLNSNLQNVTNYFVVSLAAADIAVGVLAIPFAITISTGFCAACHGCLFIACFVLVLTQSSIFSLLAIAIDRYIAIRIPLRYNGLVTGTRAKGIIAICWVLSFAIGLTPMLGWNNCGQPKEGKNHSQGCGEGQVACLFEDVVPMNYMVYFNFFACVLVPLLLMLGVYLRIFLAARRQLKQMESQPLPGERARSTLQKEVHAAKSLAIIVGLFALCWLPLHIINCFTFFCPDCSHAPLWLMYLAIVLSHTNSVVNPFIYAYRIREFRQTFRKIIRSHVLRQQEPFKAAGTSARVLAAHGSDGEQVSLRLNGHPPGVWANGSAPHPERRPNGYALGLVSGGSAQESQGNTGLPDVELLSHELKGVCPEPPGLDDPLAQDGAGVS

T2: alpha 2A (h) (human), P08913
T2 chain: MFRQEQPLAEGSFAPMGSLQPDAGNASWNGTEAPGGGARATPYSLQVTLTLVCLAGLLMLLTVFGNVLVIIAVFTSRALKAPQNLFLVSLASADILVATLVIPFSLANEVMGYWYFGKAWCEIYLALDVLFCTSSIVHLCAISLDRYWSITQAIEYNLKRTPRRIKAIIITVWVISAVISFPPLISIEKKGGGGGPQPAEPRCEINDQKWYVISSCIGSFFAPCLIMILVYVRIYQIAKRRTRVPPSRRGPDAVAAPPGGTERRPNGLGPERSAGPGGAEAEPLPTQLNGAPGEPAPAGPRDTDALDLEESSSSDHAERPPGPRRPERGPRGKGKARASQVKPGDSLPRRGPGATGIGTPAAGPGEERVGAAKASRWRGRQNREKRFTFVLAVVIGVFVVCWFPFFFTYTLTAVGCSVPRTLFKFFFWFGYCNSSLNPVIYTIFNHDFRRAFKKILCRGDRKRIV

T3: D2S (h) (human), P14416
T3 chain: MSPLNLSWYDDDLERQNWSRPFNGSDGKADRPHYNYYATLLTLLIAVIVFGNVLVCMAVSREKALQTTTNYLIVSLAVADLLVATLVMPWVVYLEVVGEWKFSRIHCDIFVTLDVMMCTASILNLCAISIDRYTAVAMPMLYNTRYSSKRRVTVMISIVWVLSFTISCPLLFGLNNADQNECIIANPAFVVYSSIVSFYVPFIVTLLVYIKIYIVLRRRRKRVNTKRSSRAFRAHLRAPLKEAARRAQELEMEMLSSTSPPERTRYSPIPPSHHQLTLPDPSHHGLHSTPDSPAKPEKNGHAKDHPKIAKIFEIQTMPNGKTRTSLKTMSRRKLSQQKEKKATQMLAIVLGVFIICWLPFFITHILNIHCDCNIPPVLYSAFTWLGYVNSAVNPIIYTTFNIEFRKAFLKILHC

T4: dopamine transporter (h) (human), Q01959
T4 chain: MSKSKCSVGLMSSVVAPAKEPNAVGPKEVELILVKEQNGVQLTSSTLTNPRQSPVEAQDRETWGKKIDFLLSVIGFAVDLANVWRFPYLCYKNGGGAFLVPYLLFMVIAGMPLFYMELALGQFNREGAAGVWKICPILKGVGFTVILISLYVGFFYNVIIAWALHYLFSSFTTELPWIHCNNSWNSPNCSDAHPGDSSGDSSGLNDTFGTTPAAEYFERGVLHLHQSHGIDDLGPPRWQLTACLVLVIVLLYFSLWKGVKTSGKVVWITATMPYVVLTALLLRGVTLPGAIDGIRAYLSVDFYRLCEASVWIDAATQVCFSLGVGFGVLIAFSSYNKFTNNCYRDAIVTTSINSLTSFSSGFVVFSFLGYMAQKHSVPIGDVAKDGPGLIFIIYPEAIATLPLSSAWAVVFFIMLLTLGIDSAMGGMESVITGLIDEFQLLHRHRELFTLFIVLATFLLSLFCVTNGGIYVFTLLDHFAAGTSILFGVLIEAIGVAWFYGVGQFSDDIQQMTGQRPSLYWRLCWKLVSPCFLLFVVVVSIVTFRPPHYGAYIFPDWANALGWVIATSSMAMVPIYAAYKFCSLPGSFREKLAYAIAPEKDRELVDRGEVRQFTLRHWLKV

T5: M2 (h) (human), P08172
T5 chain: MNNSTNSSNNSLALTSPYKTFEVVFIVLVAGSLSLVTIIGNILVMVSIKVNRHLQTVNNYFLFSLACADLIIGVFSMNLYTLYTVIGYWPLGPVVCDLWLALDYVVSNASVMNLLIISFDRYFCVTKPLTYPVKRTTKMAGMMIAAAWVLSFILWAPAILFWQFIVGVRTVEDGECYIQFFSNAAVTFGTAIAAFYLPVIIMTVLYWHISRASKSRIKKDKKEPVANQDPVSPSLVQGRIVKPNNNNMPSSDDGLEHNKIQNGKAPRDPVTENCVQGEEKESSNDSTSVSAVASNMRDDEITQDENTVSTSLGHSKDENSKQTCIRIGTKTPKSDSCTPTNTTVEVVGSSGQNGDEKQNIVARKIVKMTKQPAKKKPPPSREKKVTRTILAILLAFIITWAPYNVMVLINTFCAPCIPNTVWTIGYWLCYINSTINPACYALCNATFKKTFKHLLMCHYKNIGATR


Experiments:
Test in all cases: radioligand displacement, compound at 10 µM
Conditions in all cases: remark: other sources report otherwise
A2A (h) (human), P29274 = molecular target: T1, A2A (h) (human), P29274
V1a (h) (human), P37288 = molecular target: V1a (h) (human), P37288
[1] = molecular target: beta 1 (h) (human), P08588
[2] = substrate: N neuronal alpha 4beta 2 (h) (human), P43681
H2 (h) (human), P25021 = molecular target: H2 (h) (human), P25021
[3] = molecular target: T2, alpha 2A (h) (human), P08913
D2S (h) (human), P14416 = molecular target: T3, D2S (h) (human), P14416
[4] = molecular target: 5-HT transporter (h) (human), P31645
CB2 (h) (human), P34972 = molecular target: CB2 (h) (human), P34972
[5] = molecular target: T4, dopamine transporter (h) (human), Q01959
M2 (h) (human), P08172 = molecular target: T5, M2 (h) (human), P08172
[6] = molecular target: norepinephrine transporter (h) (human), P23975
norepinephrine transporter (h) (human), P23975, sequence (P23975 whole entry): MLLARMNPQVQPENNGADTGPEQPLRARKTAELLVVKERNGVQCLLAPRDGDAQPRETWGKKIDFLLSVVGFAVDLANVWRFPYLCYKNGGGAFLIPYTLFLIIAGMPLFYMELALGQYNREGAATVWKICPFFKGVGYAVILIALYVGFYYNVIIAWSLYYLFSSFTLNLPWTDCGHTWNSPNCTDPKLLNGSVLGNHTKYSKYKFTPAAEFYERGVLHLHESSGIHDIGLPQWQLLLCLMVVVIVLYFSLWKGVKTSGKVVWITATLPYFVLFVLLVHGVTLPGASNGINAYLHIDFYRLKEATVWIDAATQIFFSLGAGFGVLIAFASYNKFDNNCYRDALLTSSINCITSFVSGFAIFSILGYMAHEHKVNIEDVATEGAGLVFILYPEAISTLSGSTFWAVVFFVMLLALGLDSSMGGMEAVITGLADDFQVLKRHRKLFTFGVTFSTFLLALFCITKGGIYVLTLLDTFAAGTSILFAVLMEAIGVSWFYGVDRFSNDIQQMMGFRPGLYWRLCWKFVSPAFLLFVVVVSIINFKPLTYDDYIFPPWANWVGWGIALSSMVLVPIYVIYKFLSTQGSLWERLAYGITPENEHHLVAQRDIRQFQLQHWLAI

CB2 (h) (human), P34972, sequence (P34972 whole entry): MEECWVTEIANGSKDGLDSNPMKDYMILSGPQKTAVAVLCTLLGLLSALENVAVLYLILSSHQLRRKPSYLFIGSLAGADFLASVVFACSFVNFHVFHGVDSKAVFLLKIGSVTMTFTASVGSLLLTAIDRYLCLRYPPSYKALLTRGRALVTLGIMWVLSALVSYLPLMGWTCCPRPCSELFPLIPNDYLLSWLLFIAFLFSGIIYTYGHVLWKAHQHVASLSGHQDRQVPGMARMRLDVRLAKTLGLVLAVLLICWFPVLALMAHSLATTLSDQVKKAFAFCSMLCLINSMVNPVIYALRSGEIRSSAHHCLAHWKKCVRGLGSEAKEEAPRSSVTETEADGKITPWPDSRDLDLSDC
H2 (h) (human), P25021, sequence (P25021 whole entry): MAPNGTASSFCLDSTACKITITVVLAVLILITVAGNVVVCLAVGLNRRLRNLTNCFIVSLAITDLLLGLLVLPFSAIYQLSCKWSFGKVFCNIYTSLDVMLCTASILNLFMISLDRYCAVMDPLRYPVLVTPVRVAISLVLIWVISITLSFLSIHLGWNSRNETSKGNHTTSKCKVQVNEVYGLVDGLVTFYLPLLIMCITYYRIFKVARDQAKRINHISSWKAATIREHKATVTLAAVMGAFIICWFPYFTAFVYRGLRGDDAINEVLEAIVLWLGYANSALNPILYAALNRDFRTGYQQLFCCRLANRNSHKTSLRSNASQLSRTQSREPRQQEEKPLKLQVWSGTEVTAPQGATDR

| Binder | % Inhibition of Specific Binding (A2A (h) (human), P29274) | % Inhibition of Specific Binding (V1a (h) (human), P37288) | % Inhibition of Specific Binding [1] | % Inhibition of Specific Binding [2] | % Inhibition of Specific Binding (H2 (h) (human), P25021) | % Inhibition of Specific Binding [3] | % Inhibition of Specific Binding (D2S (h) (human), P14416) | % Inhibition of Specific Binding [4] | % Inhibition of Specific Binding (CB2 (h) (human), P34972) | % Inhibition of Specific Binding [5] | % Inhibition of Specific Binding (M2 (h) (human), P08172) | % Inhibition of Specific Binding [6] |
| --- | --- | --- | --- | --- | --- | --- | --- | --- | --- | --- | --- | --- |
| CPPTQFCD (here or on the partner: N-terminal hexanoyl (Hex); Cys1 and Cys7 cyclised through tMeBn carrying DOTA-PP; C-terminal amide) [Hex-[Cys(tMeBn(DOTA-PP))-Pro-Pro-Thr-Gln-Phe-Cys]-Asp-NH2 (3BP-3407)] | -4% | 16% | 4% | -8% | -5% | -9% | 15% | -3% | 2% | 12% | -4% | -8% |
| CPPTQFC (here or on the partner: N-terminal hexanoyl (Hex); Cys1 and Cys7 cyclised through tMeBn carrying DOTA-AET; free C-terminal acid (-OH)) [Hex-[Cys(tMeBn(DOTA-AET))-Pro-Pro-Thr-Gln-Phe-Cys]-OH (3BP-3554)] | -16% | 1% | -13% | -2% | -16% | 2% | -7% | -8% | -5% | 7% | 7% | -5% |
